Test results as given in US8846861 (dated 2014).
Non-standard residues stand in square brackets, D forms with d. No end group written: not given here. ANA = not defined here

Key:
[1] = target: ScFv anti CEA-CPG2 fusion protein (Pseudomonas, UniProt P06621 23-415); assay: cell-based or functional assay
[2] = target: T1, carcino-embryonic antigen (CEA) (human, UniProt P06731 35-685); assay: flow cytometry on CCL 229 (LoVo) CEA expressing cells
T1 construct: whole, on cells; The legends print the cell line as CCI-229; also called surface protein CEA; CEA surface antigen
T1 sequence (looked up): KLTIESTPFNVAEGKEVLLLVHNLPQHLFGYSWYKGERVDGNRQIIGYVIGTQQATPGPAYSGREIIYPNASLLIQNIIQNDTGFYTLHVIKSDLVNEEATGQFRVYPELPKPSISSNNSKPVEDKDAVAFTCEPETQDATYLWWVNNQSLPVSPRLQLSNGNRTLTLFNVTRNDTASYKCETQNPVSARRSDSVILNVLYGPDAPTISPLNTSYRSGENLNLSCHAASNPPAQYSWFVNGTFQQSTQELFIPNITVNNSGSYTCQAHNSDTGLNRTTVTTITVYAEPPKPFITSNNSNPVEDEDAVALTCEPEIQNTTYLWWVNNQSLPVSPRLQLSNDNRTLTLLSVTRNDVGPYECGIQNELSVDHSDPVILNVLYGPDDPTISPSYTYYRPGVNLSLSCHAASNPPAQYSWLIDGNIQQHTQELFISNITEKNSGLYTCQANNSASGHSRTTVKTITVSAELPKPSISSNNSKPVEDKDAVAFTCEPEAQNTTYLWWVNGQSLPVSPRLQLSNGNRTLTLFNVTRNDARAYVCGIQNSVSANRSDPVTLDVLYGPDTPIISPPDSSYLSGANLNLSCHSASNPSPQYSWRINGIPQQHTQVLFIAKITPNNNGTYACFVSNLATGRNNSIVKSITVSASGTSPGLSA
Description: A study to look at antibodies generated in sheep to CEA and the ScFv anti CEA-CPG2 Fusion protein was carried out with analysis using flow cytometry. Measurement by Flow Cytometry of Binding Capability of scFv Anti-CEA-CPG2 Using CEA Expressing Cells. Materials: Cells Lines: CRL 1573—control cell line, CCL 229 (LoVo)—CEA expressing cell line Antibodies/Conjugates: CPG2-PE (Phycoerythrin), CPG2 100 U/ml 1:100 dilution of 100 U conjugated ScFv anti-CEA-CPG2-PE UCL, 40-50 U/ml, 0.71 mg/ml protein 2.5 µg/ml in buffer containing BSA Sheep anti-CEA-PE, CF 1110-PE; Stock at 670 µg/ml. Mouse anti human CEA UCL at 3.9 mg/ml 2.5 µg/ml in buffer containing BSA Goat anti-Mouse-PE Southern Biotech 1050-09 L2806-XH69Z kappa chain specific at 0.25 mg/ml used at 1 µg/ml 4.5 ml polystyrene tubes, PBS azide, BSA, PBS+0.5% Formaldehyde (Polysciences #18814), Propidium Iodine (Orpegen at 100 mg/ml) Centrifuge Eppendorf 5810R set to 250G, 5 mins, 4° C. Coulter XL flow cytometer Method: Cultured cells were both used at 2×10^5 cells per tube, cells in tubes were prepared to contain the following 1. Nothing added, auto fluorescence tested 2. Propidium Iodine at a final concentration of 10 µg/ml 3. CPG2-PE 4. ScFv anti CEA-CPG2-PE 5. Sheep anti CEA-PE 6. Mouse anti CEA/anti Mouse-PE Cells were spun down and 100 µl of antibody solution was added to respective tube. […]

[ANA]-Glu (reading uncertain; also: printed as ANA-Glu) [CP006] was tested, and the “IC50, inhibition assay of CPG2 activity (methotrexate hydrolysis)” value [1] was 88.5 µM.

B1: CPG2-PE (Phycoerythrin) (enzyme, Pseudomonas, UniProt P06621 23-415, looked up)
chain: ALAQKRDNVLFQAATDEQPAVIKTLEKLVNIETGTGDAEGIAAAGNFLEAELKNLGFTVTRSKSAGLVVGDNIVGKIKGRGGKNLLLMSHMDTVYLKGILAKAPFRVEGDKAYGPGIADDKGGNAVILHTLKLLKEYGVRDYGTITVLFNTDEEKGSFGSRDLIQEEAKLADYVLSFEPTSAGDEKLSLGTSGIAYVQVNITGKASHAGAAPELGVNALVEASDLVLRTMNIDDKAKNLRFNWTIAKAGNVSNIIPASATLNADVRYARNEDFDAAMKTLEERAQQKKLPEADVKVIVTRGRPAFNAGEGGKKLVDKAVAYYKEAGGTLGVEERTGGGTDAAYAALSGKPVIESLGLPGFGYHSDKAEYVDISAIPRRLYMAARLIMDLGAGK
modifications: conjugated to phycoerythrin (PE)
notes: PE-labelled enzyme without the scFv, used as a control in flow cytometry; also called CPG2 control; carboxypeptidase G2
B1: no binding (tested: CPG2 100 U/ml 1:100 dilution) [2].
